Assay results: the supplement of paper PMC9112550, “Optimization of the antimicrobial peptide Bac7 by deep mutational scanning” (BMC Biology, 2022)

test system: Escherichia coli TOP10; assay: shrunken log2 fold change of peptide-encoding DNA abundance (4.5 h post-induction vs induction); higher = less antimicrobial activity (less host growth inhibition); conditions: time post-induction: 4.5 h; library: site-saturation at positions 5, 18, 19, 20
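Further: peptides expressed intracellularly from a pBAD plasmid library in pooled LB shake-flask culture, induced with 0.3% L-arabinose, DNA abundance read by NGS, three biological replicates, DESeq2 with apeglm shrinkage.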

Row | Sequence | shrunken log2 fold change
1 | RRIRGRPPRLPRPRPRPFVTPRP | 0.0292
2 | RRIRGRPPRLPRPRPRPFWTPRP | 0.0497
3 | RRIRGRPPRLPRPRPRPFYIPRP | 0.0551
4 | RRIRGRPPRLPRPRPRPFYMPRP | -0.0339
5 | RRIRGRPPRLPRPRPRPGAGPRP | 1.05
6 | RRIRGRPPRLPRPRPRPGAPPRP | 1.29
7 | RRIRGRPPRLPRPRPRPGDCPRP | 0.824
8 | RRIRGRPPRLPRPRPRPGECPRP | 0.959
9 | RRIRGRPPRLPRPRPRPGELPRP | 0.61
10 | RRIRGRPPRLPRPRPRPGGAPRP | 1
11 | RRIRGRPPRLPRPRPRPGGSPRP | 0.92
12 | RRIRGRPPRLPRPRPRPGGTPRP | 1.09
13 | RRIRGRPPRLPRPRPRPGHTPRP | 0.0237
14 | RRIRGRPPRLPRPRPRPGILPRP | 0.335
15 | RRIRGRPPRLPRPRPRPGIRPRP | 0.208
16 | RRIRGRPPRLPRPRPRPGKEPRP | 0.225
17 | RRIRGRPPRLPRPRPRPGKHPRP | 0.384
18 | RRIRGRPPRLPRPRPRPGKNPRP | 0.0656
19 | RRIRGRPPRLPRPRPRPGLTPRP | 1.09
20 | RRIRGRPPRLPRPRPRPGNPPRP | 0.134
21 | RRIRGRPPRLPRPRPRPGNYPRP | -0.0899
22 | RRIRGRPPRLPRPRPRPGQAPRP | 0.353
23 | RRIRGRPPRLPRPRPRPGVTPRP | 0.721
24 | RRIRGRPPRLPRPRPRPGVVPRP | 1.43
25 | RRIRGRPPRLPRPRPRPGYCPRP | -0.183

Row | Sequence | shrunken log2 fold change
26 | RRIRGRPPRLPRPRPRPGYSPRP | 2.2
27 | RRIRGRPPRLPRPRPRPHDSPRP | -0.0179
28 | RRIRGRPPRLPRPRPRPHDWPRP | 0.46
29 | RRIRGRPPRLPRPRPRPHEAPRP | -0.000398
30 | RRIRGRPPRLPRPRPRPHELPRP | 0.871
31 | RRIRGRPPRLPRPRPRPHFDPRP | 0.469
32 | RRIRGRPPRLPRPRPRPHHKPRP | -0.122
33 | RRIRGRPPRLPRPRPRPHIDPRP | 0.301
34 | RRIRGRPPRLPRPRPRPHIVPRP | 0.106
35 | RRIRGRPPRLPRPRPRPHKFPRP | 0.151
36 | RRIRGRPPRLPRPRPRPHLDPRP | 0.34
37 | RRIRGRPPRLPRPRPRPHQPPRP | 0.18
38 | RRIRGRPPRLPRPRPRPHQRPRP | 0.23
39 | RRIRGRPPRLPRPRPRPHRHPRP | 0.107
40 | RRIRGRPPRLPRPRPRPHSVPRP | -0.0536
41 | RRIRGRPPRLPRPRPRPHSWPRP | 0.417
42 | RRIRGRPPRLPRPRPRPHTRPRP | 0.559
43 | RRIRGRPPRLPRPRPRPHVIPRP | -0.191
44 | RRIRGRPPRLPRPRPRPHWKPRP | 0.184
45 | RRIRGRPPRLPRPRPRPHWRPRP | 0.203
46 | RRIRGRPPRLPRPRPRPHWVPRP | 0.107
47 | RRIRGRPPRLPRPRPRPIADPRP | 0.16
48 | RRIRGRPPRLPRPRPRPIAHPRP | 0.334
49 | RRIRGRPPRLPRPRPRPICGPRP | 0.728
50 | RRIRGRPPRLPRPRPRPICWPRP | 0.714

Row | Sequence | shrunken log2 fold change
51 | RRIRGRPPRLPRPRPRPIDHPRP | 0.115
52 | RRIRGRPPRLPRPRPRPIDQPRP | 0.436
53 | RRIRGRPPRLPRPRPRPIEFPRP | 0.0349
54 | RRIRGRPPRLPRPRPRPIEHPRP | 0.125
55 | RRIRGRPPRLPRPRPRPIFLPRP | 0.0935
56 | RRIRGRPPRLPRPRPRPIGLPRP | 0.19
57 | RRIRGRPPRLPRPRPRPIGPPRP | 0.5
58 | RRIRGRPPRLPRPRPRPIGQPRP | 0.0805
59 | RRIRGRPPRLPRPRPRPIGRPRP | 0.551
60 | RRIRGRPPRLPRPRPRPILEPRP | 0.229
61 | RRIRGRPPRLPRPRPRPILRPRP | 0.161
62 | RRIRGRPPRLPRPRPRPILYPRP | 0.0934
63 | RRIRGRPPRLPRPRPRPIMVPRP | -0.0212
64 | RRIRGRPPRLPRPRPRPINFPRP | -0.189
65 | RRIRGRPPRLPRPRPRPIPPPRP | 0.548
66 | RRIRGRPPRLPRPRPRPIQHPRP | -0.0341
67 | RRIRGRPPRLPRPRPRPIVCPRP | 0.356
68 | RRIRGRPPRLPRPRPRPIVFPRP | 0.194
69 | RRIRGRPPRLPRPRPRPIWCPRP | 0.0438
70 | RRIRGRPPRLPRPRPRPIWFPRP | 0.31
71 | RRIRGRPPRLPRPRPRPIWTPRP | 0.352
72 | RRIRGRPPRLPRPRPRPKAAPRP | 1.26
73 | RRIRGRPPRLPRPRPRPKCDPRP | 0.812
74 | RRIRGRPPRLPRPRPRPKCNPRP | 0.541
75 | RRIRGRPPRLPRPRPRPKDEPRP | 0.696

Row | Sequence | shrunken log2 fold change
76 | RRIRGRPPRLPRPRPRPKDWPRP | 0.914
77 | RRIRGRPPRLPRPRPRPKFFPRP | 0.36
78 | RRIRGRPPRLPRPRPRPKFMPRP | 0.316
79 | RRIRGRPPRLPRPRPRPKFRPRP | 0.112
80 | RRIRGRPPRLPRPRPRPKHAPRP | 1.21
81 | RRIRGRPPRLPRPRPRPKHKPRP | 0.448
82 | RRIRGRPPRLPRPRPRPKKEPRP | 0.042
83 | RRIRGRPPRLPRPRPRPKKVPRP | 0.942
84 | RRIRGRPPRLPRPRPRPKLCPRP | 0.75
85 | RRIRGRPPRLPRPRPRPKMMPRP | 0.345
86 | RRIRGRPPRLPRPRPRPKMSPRP | 0.344
87 | RRIRGRPPRLPRPRPRPKNVPRP | 0.0302
88 | RRIRGRPPRLPRPRPRPKPPPRP | 2.28
89 | RRIRGRPPRLPRPRPRPKQGPRP | 0.524
90 | RRIRGRPPRLPRPRPRPKQMPRP | 1.03
91 | RRIRGRPPRLPRPRPRPKRKPRP | 0.835
92 | RRIRGRPPRLPRPRPRPKSDPRP | 0.584
93 | RRIRGRPPRLPRPRPRPKVEPRP | 0.615
94 | RRIRGRPPRLPRPRPRPKVKPRP | 0.547
95 | RRIRGRPPRLPRPRPRPKVVPRP | 0.12
96 | RRIRGRPPRLPRPRPRPKVWPRP | 0.665
97 | RRIRGRPPRLPRPRPRPKWDPRP | 0.771
98 | RRIRGRPPRLPRPRPRPKWLPRP | 0.749
99 | RRIRGRPPRLPRPRPRPKWMPRP | 0.58
100 | RRIRGRPPRLPRPRPRPKWSPRP | 0.564

Row | Sequence | shrunken log2 fold change
101 | RRIRGRPPRLPRPRPRPKYNPRP | 0.02
102 | RRIRGRPPRLPRPRPRPLDMPRP | 0.441
103 | RRIRGRPPRLPRPRPRPLGWPRP | 1.27
104 | RRIRGRPPRLPRPRPRPLHHPRP | 0.452
105 | RRIRGRPPRLPRPRPRPLMGPRP | 0.373
106 | RRIRGRPPRLPRPRPRPLMKPRP | 0.635
107 | RRIRGRPPRLPRPRPRPLMNPRP | 0.303
108 | RRIRGRPPRLPRPRPRPLMSPRP | 0.271
109 | RRIRGRPPRLPRPRPRPLNRPRP | 0.33
110 | RRIRGRPPRLPRPRPRPLPRPRP | 1.5
111 | RRIRGRPPRLPRPRPRPLQLPRP | 0.447
112 | RRIRGRPPRLPRPRPRPLQNPRP | 0.693
113 | RRIRGRPPRLPRPRPRPLSDPRP | 0.365
114 | RRIRGRPPRLPRPRPRPLVLPRP | 0.401
115 | RRIRGRPPRLPRPRPRPLWDPRP | 0.537
116 | RRIRGRPPRLPRPRPRPLWGPRP | 0.583
117 | RRIRGRPPRLPRPRPRPLWNPRP | 0.116
118 | RRIRGRPPRLPRPRPRPLWYPRP | 0.298
119 | RRIRGRPPRLPRPRPRPLYEPRP | 0.913
120 | RRIRGRPPRLPRPRPRPMADPRP | 0.173
121 | RRIRGRPPRLPRPRPRPMCTPRP | 2.37
122 | RRIRGRPPRLPRPRPRPMCWPRP | 0.859
123 | RRIRGRPPRLPRPRPRPMCYPRP | 0.243
124 | RRIRGRPPRLPRPRPRPMDSPRP | 0.318
125 | RRIRGRPPRLPRPRPRPMEMPRP | 0.756

Row | Sequence | shrunken log2 fold change
126 | RRIRGRPPRLPRPRPRPMGRPRP | 0.28
127 | RRIRGRPPRLPRPRPRPMGTPRP | 0.48
128 | RRIRGRPPRLPRPRPRPMIAPRP | 0.915
129 | RRIRGRPPRLPRPRPRPMISPRP | 1.18
130 | RRIRGRPPRLPRPRPRPMKCPRP | 0.0384
131 | RRIRGRPPRLPRPRPRPMKNPRP | 0.68
132 | RRIRGRPPRLPRPRPRPMKPPRP | 0.276
133 | RRIRGRPPRLPRPRPRPMLCPRP | 0.558
134 | RRIRGRPPRLPRPRPRPMLGPRP | 1.19
135 | RRIRGRPPRLPRPRPRPMLMPRP | 1.09
136 | RRIRGRPPRLPRPRPRPMRDPRP | 0.947
137 | RRIRGRPPRLPRPRPRPMRPPRP | 1.3
138 | RRIRGRPPRLPRPRPRPMTCPRP | 0.133
139 | RRIRGRPPRLPRPRPRPMTVPRP | 0.0506
140 | RRIRGRPPRLPRPRPRPMVSPRP | 0.313
141 | RRIRGRPPRLPRPRPRPMWCPRP | 0.667
142 | RRIRGRPPRLPRPRPRPMYTPRP | 0.876
143 | RRIRGRPPRLPRPRPRPNAAPRP | 2.21
144 | RRIRGRPPRLPRPRPRPNCEPRP | 0.376
145 | RRIRGRPPRLPRPRPRPNCIPRP | 0.247
146 | RRIRGRPPRLPRPRPRPNDFPRP | -0.000929
147 | RRIRGRPPRLPRPRPRPNDIPRP | -0.528
148 | RRIRGRPPRLPRPRPRPNEQPRP | -0.0722
149 | RRIRGRPPRLPRPRPRPNEVPRP | 0.0747
150 | RRIRGRPPRLPRPRPRPNFAPRP | 0.569
